B1: Dual Terminator of Active Complement (DTAC) (other)
chain: GGDCGLPPDVPNAQPALEGRTSFPEDTVITYKCEESFVKIPGEKDSVICLKGSQWSDIEEFCNRSCEVPTRLNSASLKQPYITQNYFPVGTVVEYECRPGYRREPSLSPKLTCLQNLKWSTAVEFCKKKSCPNPGEIRNGQIDVPGGILFGATISFSCNTGYKLFGSTSSFCLISGSSVQWSDPLPECREIYCPAPPQIDNGIIQGERDHYGYRQSVTYACNKGFTMIGEHSIYCTVNNDEGEWSGPPPECRGKSLTSKVPPTVQKPTTVNVPTTEVSPTSQKTTTKTTTPNAQATRSTPVSRTTKHFHETTPNKGSGTTSGTTGGGGGLQCYNCPNPTADCKTAVNCSSDFDACLITKAGLQVYNKCWKFEHCNFNDVTTRLRENELTYYCCKKDLCNFNEQLE
modifications: glycosylated (about 76 kDa band observed)
B2: Soluble Active Complement Terminator (SACT) (other)
chain: GCEEPPTFEAMELIGKPKPYYEIGERVDYKCKKGYFYIPPLATHTICDRNHTWLPVSDDACYRETCPYIRDPLNGQAVPANGTYEFGYQMHFICNEGYYLIGEEILYCELKGSVAIWSGKPPICEKVLCTPPPKIKNGKHTFSEVEVFEYLDAVTYSCDPAPGPDPFSLIGESTIYCGDNSVWSRAAPECKVVKCRFPVVENGKQISGFGKKFYYKATVMFECDKGFYLDGSDTIVCDSNSTWDPPVPKCLKVGGGGGGDCGLPPDVPNAQPALEGRTSFPEDTVITYKCEESFVKIPGEKDSVICLKGSQWSDIEEFCNRSCEVPTRLNSASLKQPYITQNYFPVGTVVEYECRPGYRREPSLSPKLTCLQNLKWSTAVEFCKKKSCPNPGEIRNGQIDVPGGILFGATISFSCNTGYKLFGSTSSFCLISGSSVQWSDPLPECREIYCPAPPQIDNGIIQGERDHYGYRQSVTYACNKGFTMIGEHSIYCTVNNDEGEWSGPPPECRGKSLTSKVPPTVQKPTTVNVPTTEVSPTSQKTTTKTTTPNAQATRSTPVSRTTKHFHETTPNKGSGTTSGTTGGGGGLQCYNCPNPTADCKTAVNCSSDFDACLITKAGLQVYNKCWKFEHCNFNDVTTRLRENELTYYCCKKDLCNFNEQLE
modifications: N- and O-linked glycosylation (about 110 kDa band observed)
B3: soluble terminator of activated complement (STAC) (other)
chain: LQCYNCPNPTADCKTAVNCSSDFDACLITKAGLQVYNKCWKFEHCNFNDVTTRLRENELTYYCCKKDLCNFNEQLEGGGGGCEEPPTFEAMELIGKPKPYYEIGERVDYKCKKGYFYIPPLATHTICDRNHTWLPVSDDACYRETCPYIRDPLNGQAVPANGTYEFGYQMHFICNEGYYLIGEEILYCELKGSVAIWSGKPPICEKVLCTPPPKIKNGKHTFSEVEVFEYLDAVTYSCDPAPGPDPFSLIGESTIYCGDNSVWSRAAPECKVVKCRFPVVENGKQISGFGKKFYYKATVMFECDKGFYLDGSDTIVCDSNSTWDPPVPKCLKVGGGGGGDCGLPPDVPNAQPALEGRTSFPEDTVITYKCEESFVKIPGEKDSVICLKGSQWSDIEEFCNRSCEVPTRLNSASLKQPYITQNYFPVGTVVEYECRPGYRREPSLSPKLTCLQNLKWSTAVEFCKKKSCPNPGEIRNGQIDVPGGILFGATISFSCNTGYKLFGSTSSFCLISGSSVQWSDPLPECREIYCPAPPQIDNGIIQGERDHYGYRQSVTYACNKGFTMIGEHSIYCTVNNDEGEWSGPPPECRGKSLTSKVPPTVQKPTTVNVPTTEVSPTSQKTTTKTTTPNAQATRSTPVSRTTKHFHETTPNKGSGTTSGTT

Assays:
C9 = C9 (UniProt P02748 22-559); assay: cell-based or functional assay
Chain of C9 (P02748 22-559 limits assumed): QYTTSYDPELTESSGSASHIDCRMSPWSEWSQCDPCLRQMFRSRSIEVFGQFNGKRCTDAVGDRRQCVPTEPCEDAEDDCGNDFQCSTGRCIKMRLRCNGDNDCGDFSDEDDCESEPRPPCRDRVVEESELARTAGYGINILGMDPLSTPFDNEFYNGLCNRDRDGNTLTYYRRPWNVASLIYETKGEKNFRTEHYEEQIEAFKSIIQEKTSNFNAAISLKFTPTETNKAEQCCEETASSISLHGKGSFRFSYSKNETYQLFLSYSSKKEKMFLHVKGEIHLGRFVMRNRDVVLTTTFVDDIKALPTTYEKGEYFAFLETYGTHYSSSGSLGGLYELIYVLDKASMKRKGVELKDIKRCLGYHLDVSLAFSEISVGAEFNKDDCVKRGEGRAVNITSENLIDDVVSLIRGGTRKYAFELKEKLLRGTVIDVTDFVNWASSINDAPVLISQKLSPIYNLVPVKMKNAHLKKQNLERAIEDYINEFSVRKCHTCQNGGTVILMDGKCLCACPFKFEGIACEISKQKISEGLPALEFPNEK

C3b = C3b (human, UniProt P01024 749-1663; P01024 23-667); assay: cell-based or functional assay
Chain of C3b (P01024 749-1663 limits assumed, chain 1 of 2): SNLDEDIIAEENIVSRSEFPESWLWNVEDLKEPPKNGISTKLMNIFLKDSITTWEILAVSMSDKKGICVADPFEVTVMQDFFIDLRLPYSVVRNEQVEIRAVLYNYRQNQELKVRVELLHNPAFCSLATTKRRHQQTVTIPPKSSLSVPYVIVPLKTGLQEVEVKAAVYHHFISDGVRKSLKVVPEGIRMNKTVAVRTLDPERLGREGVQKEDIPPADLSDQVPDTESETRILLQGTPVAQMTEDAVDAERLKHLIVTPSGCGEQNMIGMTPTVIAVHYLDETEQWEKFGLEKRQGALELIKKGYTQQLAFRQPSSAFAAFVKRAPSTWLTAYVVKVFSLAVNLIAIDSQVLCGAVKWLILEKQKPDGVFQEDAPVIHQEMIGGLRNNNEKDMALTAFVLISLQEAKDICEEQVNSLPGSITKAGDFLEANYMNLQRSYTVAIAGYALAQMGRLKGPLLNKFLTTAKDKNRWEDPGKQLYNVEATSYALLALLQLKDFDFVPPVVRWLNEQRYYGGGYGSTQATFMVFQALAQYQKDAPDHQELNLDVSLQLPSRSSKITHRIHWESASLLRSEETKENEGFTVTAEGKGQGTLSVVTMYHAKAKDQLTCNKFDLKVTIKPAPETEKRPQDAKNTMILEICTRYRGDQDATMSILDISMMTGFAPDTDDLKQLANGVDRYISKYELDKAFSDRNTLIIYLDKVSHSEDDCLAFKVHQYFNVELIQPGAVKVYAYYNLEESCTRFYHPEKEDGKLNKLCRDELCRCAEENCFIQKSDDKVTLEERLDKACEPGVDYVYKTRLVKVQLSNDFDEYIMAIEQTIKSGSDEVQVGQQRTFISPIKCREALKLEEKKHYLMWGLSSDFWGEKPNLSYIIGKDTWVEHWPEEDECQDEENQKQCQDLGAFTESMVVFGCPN
Chain of C3b (P01024 23-667 limits assumed, chain 2 of 2): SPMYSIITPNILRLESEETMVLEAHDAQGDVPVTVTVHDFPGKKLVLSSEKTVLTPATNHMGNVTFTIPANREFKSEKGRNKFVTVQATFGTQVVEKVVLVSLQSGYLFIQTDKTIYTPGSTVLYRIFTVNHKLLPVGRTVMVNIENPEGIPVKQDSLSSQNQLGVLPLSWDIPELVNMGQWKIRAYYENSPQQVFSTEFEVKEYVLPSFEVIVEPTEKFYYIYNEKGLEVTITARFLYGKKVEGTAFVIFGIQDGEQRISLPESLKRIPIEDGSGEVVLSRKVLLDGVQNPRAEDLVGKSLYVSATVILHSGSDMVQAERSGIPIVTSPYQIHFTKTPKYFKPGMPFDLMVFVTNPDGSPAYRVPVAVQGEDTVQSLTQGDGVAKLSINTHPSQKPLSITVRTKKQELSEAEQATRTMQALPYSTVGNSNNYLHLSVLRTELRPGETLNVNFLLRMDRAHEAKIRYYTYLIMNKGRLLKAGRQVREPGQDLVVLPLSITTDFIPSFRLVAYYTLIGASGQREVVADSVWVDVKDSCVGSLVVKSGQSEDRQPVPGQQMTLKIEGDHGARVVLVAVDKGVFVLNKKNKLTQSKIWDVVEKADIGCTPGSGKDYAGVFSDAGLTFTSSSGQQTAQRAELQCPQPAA

Molecule | reduction of release of hemoglobin from sheep erythrocytes carrying C5b-8 after addition of C9, relative to media from pGFP-transfected cells (C9) | other results
sCD59 (soluble CD59, positive control) (from UniProt P13987 26-102) |  | reduction in lysis of sheep erythrocytes carrying C5b-8 after addition of C9, compared to GFP media containing C9 (C9): 21%
B1 | 34.8% | 
B2 | 29.9% | 
B3 |  | reduction in C3b α′ chain signal intensity in the presence of Factor I, relative to media from pGFP transfected cells (quantitative western blot) (C3b): 34.3%

From US20210138031A1 (TRUSTEES OF TUFTS COLLEGE, published 2021)
